Measured values from paper doi:10.1101/2021.02.22.432116 (bioRxiv, 2021).
Changes are numbered by the printed parent chain. Names and notes keep the numbering of the source. Values joined by “and” are separate entries in the source; they are usually repeats but may differ in a detail not shown here. Identical values can stand only once. Like-named read-outs stand apart in the source and are kept apart here.

B1: UBQLN2 UBL domain (UBQLN2 1-107) (domain or fragment, human, UniProt Q9UHD9 1-107, looked up)
chain: MAENGESSGPPRPSRGPAAAQGSAAAPAEPKIIKVTVKTPKEKEEFAVPENSSVQQFKEAISKRFKSQTDQLVLIFAGKILKDQDTLIQHGIHDGLTVHLVIKSQNR
B2: UBQLN2 UBL I80A (domain or fragment, human, UniProt Q9UHD9 1-107, looked up)
chain: B1 chain with I80A
B3: UBQLN2 109-576 (domain or fragment, human, UniProt Q9UHD9 109-576, looked up)
chain: QGQSTQPSNAAGTNTTSASTPRSNSTPISTNSNPFGLGSLGGLAGLSSLGLSSTNFSELQSQMQQQLMASPEMMIQIMENPFVQSMLSNPDLMRQLIMANPQMQQLIQRNPEISHLLNNPDIMRQTLEIARNPAMMQEMMRNQDLALSNLESIPGGYNALRRMYTDIQEPMLNAAQEQFGGNPFASVGSSSSSGEGTQPSRTENRDPLPNPWAPPPATQSSATTSTTTSTGSGSGNSSSNATGNTVAAANYVASIFSTPGMQSLLQQITENPQLIQNMLSAPYMRSMMQSLSQNPDLAAQMMLNSPLFTANPQLQEQMRPQLPAFLQQMQNPDTLSAMSNPRAMQALMQIQQGLQTLATEAPGLIPSFTPGVGVGVLGTAIGPVGPVTPIGPIGPIVPFTPIGPIGPIGPTGPAAPPGSTGSGGPTGPTVSSAAPSETTSPTSESGPNQQFIQQMVQALAGANAPQLP
B4: UBQLN2 UBA domain (UBQLN2 571-624) (domain or fragment, human, UniProt Q9UHD9 571-624, looked up)
chain: NAPQLPNPEVRFQQQLEQLNAMGFLNREANLQALIATGGDINAAIERLLGSQPS
B5: UBQLN2 248-576 (domain or fragment, human, UniProt Q9UHD9 248-576, looked up)
chain: MRNQDLALSNLESIPGGYNALRRMYTDIQEPMLNAAQEQFGGNPFASVGSSSSSGEGTQPSRTENRDPLPNPWAPPPATQSSATTSTTTSTGSGSGNSSSNATGNTVAAANYVASIFSTPGMQSLLQQITENPQLIQNMLSAPYMRSMMQSLSQNPDLAAQMMLNSPLFTANPQLQEQMRPQLPAFLQQMQNPDTLSAMSNPRAMQALMQIQQGLQTLATEAPGLIPSFTPGVGVGVLGTAIGPVGPVTPIGPIGPIVPFTPIGPIGPIGPTGPAAPPGSTGSGGPTGPTVSSAAPSETTSPTSESGPNQQFIQQMVQALAGANAPQLP

Key:
Experiment in all cases: NMR titration
[1] = molecular target: B3
[2] = molecular target: UBQLN2 178-576 (human, UniProt Q9UHD9 178-576)
[3] = molecular target: B5
[4] = molecular target: UBQLN2 379-576 (human, UniProt Q9UHD9 379-576)
[5] = molecular target: B3; remark: listed apart in the source
[6] = molecular target: B4
[7] = molecular target: B1
[8] = molecular target: B1; remark: listed apart in the source

B1: binds [1]; binds [2]; binds [3]. B1: binds [4].

B2: binds [5].

For B3, the “UBA peak intensity relative to isolated UBA” value [6] was 60%.

For B4, the Kd [7] was 178 µM and 210 µM.

B5 was tested, and the “UBL peak intensity relative to isolated UBL” value [8] was 70%.
